B1: PD1-23 (antibody, V domains shown)
VH: QVQLVQSGAEVKKPGASVKVSCKASGYPFTSYGISWVRQAPGQGLEWMGWISAYNGNTNYAQKLQGRVTMTTDTSTSTAYMELRSLRSDDTAVYYCARDVDYSSGSGYWGQGTLVTVSS
VL: SYELMQPPSVSVSPGQTARITCSGDALPKQYAYWYQQKPGQAPVLVIYKDTERPSGIPERFSGSSSGTTVTLTISGVQAEDEADYYCQSADNSITYRVFGGGTKLTVL
notes: IgG in the assay
B2: PD1-43 (antibody, V domains shown)
VH: QVQLVQSGAEVKKPGASVKVSCKASGYTFSNYGISWVRQAPGQGLEWMGWISAYSGNTKYAQKLQGRVTMTTDTSTSTAYMELRSLRSDDTAVYYCARDADYASGSGYWGQGTLVTVSS
VL: SYELMQPPSVSVSPGQTARITCSGDALPRQYAHWYQQKPGQAPVLVIYKDNERPSGIPERFSGSSSGTTVTLTISGVQAEDEADYYCQSADTSTIYRVFGGGTKLTVL
notes: IgG in the assay
B3: PD1-11 (antibody, V domains shown)
VH: QVQLVQSGAEVKKPGASVKVSCKASGYTFSNYGFSWVRQAPGQGLEWMGWISPYSGNTKYAQKLQGRVTMTTDTSTSTAYMELRSLRSDDTAVYYCARDADYSIGSGYWGQGTLVTVSS
VL: SYELMQPPSVSVSPGQTARITCSGDALPRQYAHWYQQKPGQAPVLVIYKDNVRPSGIPERFSGSSSGTTVTLTISGVQAEDEADYYCQSADTSTIYRVFGGGTKLTVL
notes: IgG in the assay
B4: PD1-30 (antibody, V domains shown)
VH: QVQLVQSGAEVKKPGASVKVSCKASGYTFNNYGVSWVRQAPGQGLEWMGWVSAYSGNTNYAQKLQGRVTMTTDTSTSTAYMELRSLRSDDTAVYYCARDADYASGSGYWGQGTLVTVSS
VL: SYELMQPPSVSVSPGQTARITCSGDALSNQYTYWYQQKPGQAPVLVIYKDKKRPSGIPERFSGSSSGTTVTLTISGVQAEDEADYYCQSADNSITYRVFGGGTKLTVL
notes: IgG in the assay
B5: PD1-17 (antibody, V domains shown)
VH: QVQLVQSGAEVKKPGASVKVSCKASGYTFSKYGISWVRQAPGQGLEWMGWISAYSGHTDYAQKLQGRVTMTTDTSTSTAYMELRSLRSDDTAVYYCARDFDYSSGSGYWGQGTLVTVSS
VL: SYELMQPPSVSVSPGQTARITCSGDALPEQYAYWYQQKPGQAPVLVIYKDTERSSGIPERFSGSSSGTTVTLTISGVQAEDEADYYCQSADNSITYRVFGGGTKLTVL
notes: IgG in the assay
B6: PD1-10 (antibody, V domains shown)
VH: QVQLVQSGAEVKKPGASVKVSCKASGYRFTSYGISWVRQAPGQGLEWMGWISAYNGNTNYAQKLQGRVTMTTDTSTSTAYMELRSLRSDDTAVYYCARDADYASGSGYWGQGTLVTVSS
VL: SYELMQPPSVSVSPGQTARITCSGDALPKQYAYWYQQKPGQAPVLVIYKDTERPSGIPERFSGSSSGTTVTLTISGVQAEDEADYYCQSADNSITYRVFGGGTKLTVL
notes: IgG in the assay
B7: PD1-18 (antibody, V domains shown)
VH: QVQLVQSGAEVKKPGASVKVSCKASGYTFNNYGISWVRQAPGQGLEWMGWISAYSGHTDYAQKLQGRVTMTTDTSTSTAYMELRSLRSDDTAVYYCARDWDYSSGSGYWGQGTLVTVSS
VL: SYELMQPPSVSVSPGQTARITCSGDALSNQYGYWYQQKPGQAPVLVIYKDNERASGIPERFSGSSSGTTVTLTISGVQAEDEADYYCQSADNSITYRVFGGGTKLTVL
notes: IgG in the assay
B8: PD1-4 (antibody, V domains shown)
VH: QVQLVQSGAEVKKPGASVKVSCKASGYTFSTSGISWVRQAPGQGLEWMGWISAYNGNTNYAQKLQGRVTMTTDTSTSTAYMELRSLRSDDTAVYYCARDFDYSSGSGYWGQGTLVTVSS
VL: SYELMQPPSVSVSPGQTARITCSGDALPKQYAYWYQQKPGQAPVLVIYKDTERPSGIPERFSGSSSGTTVTLTISGVQAEDEADYYCQSADNSITYRVFGGGTKLTVL
notes: IgG in the assay
B9: PD1-42 (antibody, V domains shown)
VH: QVQLVQSGAEVKKPGASVKVSCKASGYTFNNFGISWVRQAPGQGLEWMGWISAYNGNTDYAQKLQGRVTMTTDTSTSTAYMELRSLRSDDTAVYYCARDMDYSSGSGYWGQGTLVTVSS
VL: SYELMQPPSVSVSPGQTARITCSGDALSNQYAYWYQQKPGQAPVLVIYKDTETPSGIPERFSGSSSGTTVTLTISGVQAEDEADYYCQSADNSITYRVFGGGTKLTVL
notes: IgG in the assay
B10: PD1-36 (antibody, V domains shown)
VH: QVQLVQSGAEVKKPGASVKVSCKASGYTFSSYGVSWVRQAPGQGLEWMGWISAYSGSTNYAQKLQGRVTMTTDTSTSTAYMELRSLRSDDTAVYYCARDAVYSSGSGYWGQGTLVTVSS
VL: SYELMQPPSVSVSPGQTARITCSGDALPNQYAHWYQQKPGQAPVLVIYKDTQRPSGIPERFSGSSSGTTVTLTISGVQAEDEADYYCQSADNSITYRVFGGGTKLTVL
notes: IgG in the assay
B11: PD1-14 (antibody, V domains shown)
VH: QVQLVQSGAEVKKPGASVKVSCKASGYPFTNYGISWVRQAPGQGLEWMGWTSAYSGNTNYAQKLQGRVTMTTDTSTSTAYMELRSLRSDDTAVYYCARDFDYSSGSGYWGQGTLVTVSS
VL: SYELMQPPSVSVSPGQTARITCSGDALPKQYAYWYQQKPGQAPVLVIYKDTERRSGIPERFSGSSSGTTVTLTISGVQAEDEADYYCQSADNSITYRVFGGGTKLTVL
notes: IgG in the assay
B12: PD1-25 (antibody, V domains shown)
VH: QVQLVQSGAEVKKPGASVKVSCKASGYSFTRYGISWVRQAPGQGLEWMGWISPYSGNTKYAQKLQGRVTMTTDTSTSTAYMELRSLRSDDTAVYYCARDADYGSGSGYWGQGTLVTVSS
VL: SYELMQPPSVSVSPGQTARITCSGDALPDQYAYWYQQKPGQAPVLVIYKDYERPSGIPERFSGSSSGTTVTLTISGVQAEDEADYYCQSADNSITYRVFGGGTKLTVL
notes: IgG in the assay
B13: PD1-12 (antibody, V domains shown)
VH: QVQLVQSGAEVKKPGASVKVSCKASGYTFNTYGVSWVRQAPGQGLEWMGWISAYSGNTRYAQKLQGRVTMTTDTSTSTAYMELRSLRSDDTAVYYCARDFDYSSGSGYWGQGTLVTVSS
VL: SYELMQPPSVSVSPGQTARITCSGDALPKQYAYWYQQKPGQAPVLVIYKDTERPSGIPERFSGSSSGTTVTLTISGVQAEDEADYYCQSADNSITYRVFGGGTKLTVL
notes: IgG in the assay
B14: PD1-27 (antibody, V domains shown)
VH: QVQLVQSGAEVKKPGASVKVSCKASGYPFTNYGITWVRQAPGQGLEWMGWISAYNGNTNYAQKLQGRVTMTTDTSTSTAYMELRSLRSDDTAVYYCARDWDYSSGSGYWGQGTLVTVSS
VL: SYELMQPPSVSVSPGQTARITCSGDILPKQYAYWYQQKPGQAPVLVIYKDNERASGIPERFSGSSSGTTVTLTISGVQAEDEADYYCQSADNSITYRVFGGGTKLTVL
notes: IgG in the assay
B15: PD1-48 (antibody, V domains shown)
VH: EVQLVESGGGLVQPGRSLRLSCAASGFTFDDYALHWVRQAPGKDLEWVSGISWNSGSQGYADSVKGRFTISRDNAKNSLYLQMNSLRAEDTALYYCVREKGPGLTGSTADYYGLDAWGQGTMVTVSS
B16: PD1-32 (antibody, V domains shown)
VH: EVQLVESGGGLVQPGRSLRLSCAASGFTFDDYAMHWVRQAPGKDLEWVSGISWNSGSMGYADSVKGRFTISRDNAKNSLYLQMNSLRAEDTALYYCVREKGPGLTGSTADYYGLDAWGQGTMVTVSS
B17: PD1-22 (antibody, V domains shown)
VH: EVQLVESGGGLVQPGRSLRLSCAASGFTFDDYAMHWVRQAPGKDLEWVSGISWNGGSMGYAASVKGRFTISRDNAKNSLYLQMNSLRAEDTALYYCVREKGPGLTGSTADYYGLDAWGQGTMVTVSS
B18: PD1-38 (antibody, V domains shown)
VH: EVQLVESGGGLVQPGRSLRLSCAASGFTFDDYALHWVRQAPGKDLEWVSGISWNGGSMGYADSVKGRFTISRDNAKNSLYLQMNSLRAEDTALYYCVREKGPGLTGSTADYYGLDAWGQGTMVTVSS
B19: PD1-50 (antibody, V domains shown)
VH: EVQLVESGGGLVQPGRSLRLSCAASGFTFDDYAFHWVRQAPGKDLEWVSGISWNAGSQGYADSVKGRFTISRDNAKNSLYLQMNSLRAEDTALYYCVREKGPGLTGSTADYYGLDAWGQGTMVTVSS
B20: PD1-24 (antibody, V domains shown)
VH: EVQLVESGGGLVQPGRSLRLSCAASGFTFDDYAMHWVRQAPGKDLEWVSGISWNSGSMGYAASVKGRFTISRDNAKNSLYLQMNSLRAEDTALYYCVREKGPGLTGSTADYYGLDAWGQGTMVTVSS
B21: PD1-20 (antibody, V domains shown)
VH: EVQLVESGGGLVQPGRSLRLSCAASGFTFDDYAMHWVRQAPGKDLEWVSGISWNGGSMGYADSVKGRFTISRDNAKNSLYLQMNSLRAEDTALYYCVREKGPGLTGSTADYYGLDVWGQGTMVTVSS
B22: PD1-44 (antibody, V domains shown)
VH: EVQLVESGGGLVQPGRSLRLSCAASGFTFDDYALHWVRQAPGKDLEWVSGISWNSGSYGYADSVKGRFTISRDNAKNSLYLQMNSLRAEDTALYYCVREKGPGLTGSTADYYGLDAWGQGTMVTVSS
B23: PD1-39 (antibody, V domains shown)
VH: EVQLVESGGGLVQPGRSLRLSCAASGFTFDDYALHWVRQAPGKDLEWVSGISWNGGSYGYADSVKGRFTISRDNAKNSLYLQMNSLRAEDTALYYCVREKGPGLTGSTADYYGLDAWGQGTMVTVSS
B24: PD1-49 (antibody, V domains shown)
VH: EVQLVESGGGLVQPGRSLRLSCAASGFTFDDYAFHWVRQAPGKDLEWVSGISWNSGSQGYADSVKGRFTISRDNAKNSLYLQMNSLRAEDTALYYCVREKGPGLTGSTADYYGLDAWGQGTMVTVSS
B25: PD1-21 (antibody, V domains shown)
VH: EVQLVESGGGLVQPGRSLRLSCAASGFTFDDYAMHWVRQAPGKDLEWVSGISWNGGSMGYAASVKGRFTISRDNAKNSLYLQMNSLRAEDTALYYCVREKGPGLTGSTADYYGLDVWGQGTMVTVSS

The target in the experiment is program cell death protein 1 (PD-1) (UniProt Q15116 25-167, limits assumed). Nature of the experiment: SPR (Carterra LSA), IgG, monovalent affinity.
Sequence of program cell death protein 1 (PD-1) (Q15116 25-167 limits assumed): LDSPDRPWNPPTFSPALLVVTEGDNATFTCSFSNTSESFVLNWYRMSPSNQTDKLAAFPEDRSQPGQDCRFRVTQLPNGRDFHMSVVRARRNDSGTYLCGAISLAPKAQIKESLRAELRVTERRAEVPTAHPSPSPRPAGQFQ
In the case of B1, the dissociation constant (Kd) (as a rule, a measure of binding affinity in units of concentration) came to 69.2 nM. Next, B2: 54.4 nM; B3: 48.1 nM. B4 displayed a Kd of 68.8 nM.

In turn, B5 yielded a Kd of 60.1 nM.

With B6, the Kd turned out to be 47.4 nM. As for B7, the affinity, expressed as Kd, was 68.4 nM.

B8 came in with a dissociation constant (Kd) of 31.4 nM. This Kd lies about 2.2-fold lower than the previous one. Under B9 stands 53.6 nM; under B10, 84.9 nM; under B11, 45.9 nM. For B12, the Kd turned out to be 76 nM. Against the preceding molecule, the Kd is about 1.7-fold higher.

On to B13, for which the Kd is 53.5 nM. Under B14 stands 88.6 nM.

Molecule B15 had a Kd of 64.3 nM. Molecule B16 yielded a Kd of 92.2 nM. This Kd and that of the molecule before are within 1.5-fold of each other. As to B17, the Kd amounted to 132 nM. Molecule B18 showed a dissociation constant Kd of 204 nM. This Kd is about 1.5-fold higher than that of the molecule before.

B19 registered a Kd of 87.5 nM. In turn, B20 had a Kd of 190 nM. Next, B21: 109 nM; B22: 226 nM; B23: 240 nM. Next, B24: 201 nM; B25: 92 nM.

The values are drawn from patent US20200308575A1 (TWIST BIOSCIENCE, published 2020).
